Measurements: patent US20070020327A1
Read-outs that look alike come from different tables or passages of the source. Blank lines part the entries; values can stand above or below the binder they belong to.

Columns and labels:
HLA-A*0301 (human) [1] = assay: competition with 125I-labelled standard peptide for purified HLA-A*0301, gel filtration; ratio to the A*0301 standard peptide 941.12 [..] (11 nM)
HLA-A*0101 (human) [2] = assay: competition with 125I-labeled standard peptide for purified HLA-A*0101, gel filtration
HLA-A*0301 (human) [3] = assay: competition with 125I-labelled standard peptide on purified HLA-A*0301, gel filtration
HLA-A*0101 (human) [4] = assay: competition with 125I-labelled standard peptide for purified HLA-A*0101, gel filtration
HLA-A*6802 (human) = assay: inhibition of 125I-labelled standard peptide binding to purified HLA-A*6802, gel filtration
HLA-A*0206 (human) = assay: inhibition of 125I-labelled standard peptide binding to purified HLA-A*0206, gel filtration
HLA-A*0202 (human) = assay: inhibition of 125I-labelled standard peptide binding to purified HLA-A*0202, gel filtration
HLA-A*0201 (human) = assay: inhibition of 125I-labelled standard peptide binding to purified HLA-A*0201, gel filtration
HLA-A*0203 (human) = assay: inhibition of 125I-labelled standard peptide binding to purified HLA-A*0203, gel filtration
[5] = remark: other sources report otherwise

binding affinity ratio (IC50 of standard peptide / IC50 of test peptide) (HLA-A*0301 (human) [3]): 0.0005
Binder: LLHETDSAVA (modifications not checked) [… (PSM, position 4)]

binding affinity ratio (IC50 of standard peptide / IC50 of test peptide) (HLA-A*0101 (human) [4]): 0.0001
Binder: RGAVEPDRY (modifications not checked) [… (PSM, position 363)]

binding affinity ratio (IC50 of standard peptide / IC50 of test peptide) (HLA-A*0301 (human) [3]): 0.0006
Binder: LLEKMGGSA (modifications not checked) [… (PSM, position 305)]

binding affinity ratio (IC50 of standard peptide / IC50 of test peptide) (HLA-A*0101 (human) [4]; [5]): 0.62
Binder: LTQLGMEQHY (modifications not checked) [… (PAP, position 70)]

binding affinity ratio (IC50 of standard peptide / IC50 of test peptide) (HLA-A*0101 (human) [4]): 0.001
Binder: WGEVKRQIY (modifications not checked) [… (PSM, position 725)]

binding affinity ratio (IC50 of standard peptide / IC50 of test peptide) (HLA-A*0101 (human) [2]): 0.001
Binder: LFEPPPPGY (modifications not checked) [… (PSM, position 143)]

binding affinity ratio (IC50 of standard peptide / IC50 of test peptide) (HLA-A*0301 (human) [3]): 0.001
Binder: LLPPYASCH (modifications not checked) [… (PAP, position 306)]

binding affinity ratio (IC50 of standard peptide / IC50 of test peptide) (HLA-A*6802 (human); [5]): -0.0002
binding affinity ratio (IC50 of standard peptide / IC50 of test peptide) (HLA-A*0201 (human); [5]): 0.0008
Binder: CALPEKPAVYT (modifications not checked) [… (Kallikrein, position 234)]

binding affinity ratio (IC50 of standard peptide / IC50 of test peptide) (HLA-A*0101 (human) [2]): 0.004
Binder: AGESFPGIY (modifications not checked) [… (PSM, position 701)]

binding affinity ratio (IC50 of standard peptide / IC50 of test peptide) (HLA-A*0301 (human) [3]): 0.0006
Binder: LLSYPNKTH (modifications not checked) [… (PSM, position 116)]

binding affinity ratio (IC50 of standard peptide / IC50 of test peptide) (HLA-A*0101 (human) [2]): 0.0001
Binder: KAENIKKFLY (modifications not checked) [… (PSM, position 66)]

binding affinity ratio (IC50 of standard peptide / IC50 of test peptide) (HLA-A*0101 (human) [4]): 0.001
Binder: TYELVEKFY (modifications not checked) [… (PSM, position 558)]

Further lines, the binder ahead of its results:

Binder: CSPSCPLER (modifications not checked) [PAP 347 peptide …]
binding affinity ratio (IC50 of standard peptide / IC50 of test peptide) (HLA-A*0301 (human) [1]): 0.004

Binder: LPERPSLY (modifications not checked) [LPERPSLY (PSA, position 232)]
binding affinity ratio (IC50 of standard peptide / IC50 of test peptide) (HLA-A*0101 (human) [2]): 0.0002

Binder: EPALGTTCY (modifications not checked) [… (Kallikrein, position 145; PSA, position 141)]
binding affinity ratio (IC50 of standard peptide / IC50 of test peptide) (HLA-A*0101 (human) [2]): 0.0011

Binder: CALPEKPA (modifications not checked) [CALPEKPA (Kallikrein, position 234)]
binding affinity ratio (IC50 of standard peptide / IC50 of test peptide) (HLA-A*6802 (human)): -0.0001
binding affinity ratio (IC50 of standard peptide / IC50 of test peptide) (HLA-A*0206 (human)): -0.0001
binding affinity ratio (IC50 of standard peptide / IC50 of test peptide) (HLA-A*0202 (human)): -0.0001
binding affinity ratio (IC50 of standard peptide / IC50 of test peptide) (HLA-A*0201 (human)): -0.0001
binding affinity ratio (IC50 of standard peptide / IC50 of test peptide) (HLA-A*0203 (human)): -0.0001

Binder: CLKKNSQV (modifications not checked) [CLKKNSQV (Kallikrein, position 66)]
binding affinity ratio (IC50 of standard peptide / IC50 of test peptide) (HLA-A*6802 (human)): -0.0001
binding affinity ratio (IC50 of standard peptide / IC50 of test peptide) (HLA-A*0206 (human)): -0.0001
binding affinity ratio (IC50 of standard peptide / IC50 of test peptide) (HLA-A*0202 (human)): 0.0006
binding affinity ratio (IC50 of standard peptide / IC50 of test peptide) (HLA-A*0201 (human)): 0.0001
binding affinity ratio (IC50 of standard peptide / IC50 of test peptide) (HLA-A*0203 (human)): 0.0006

Binder: CSGKIVIARY (modifications not checked) [PSM 196 peptide …]
binding affinity ratio (IC50 of standard peptide / IC50 of test peptide) (HLA-A*0301 (human) [1]; [5]): 0.06

Binder: DALFDIESK (modifications not checked) [PSM 710 peptide …]
binding affinity ratio (IC50 of standard peptide / IC50 of test peptide) (HLA-A*0301 (human) [1]): 0.0006

Binder: CAGLWTGGKDT (modifications not checked) [… (Kallikrein, position 198)]
binding affinity ratio (IC50 of standard peptide / IC50 of test peptide) (HLA-A*6802 (human)): -0.0002
binding affinity ratio (IC50 of standard peptide / IC50 of test peptide) (HLA-A*0206 (human)): -0.0001
binding affinity ratio (IC50 of standard peptide / IC50 of test peptide) (HLA-A*0202 (human)): 0.0003
binding affinity ratio (IC50 of standard peptide / IC50 of test peptide) (HLA-A*0201 (human)): 0.0001

Binder: CLKKNSQVWL (modifications not checked) [… (Kallikrein, position 66)]
binding affinity ratio (IC50 of standard peptide / IC50 of test peptide) (HLA-A*6802 (human); [5]): -0.0001
binding affinity ratio (IC50 of standard peptide / IC50 of test peptide) (HLA-A*0206 (human); [5]): 0.0002
binding affinity ratio (IC50 of standard peptide / IC50 of test peptide) (HLA-A*0201 (human); [5]): 0.0001
